Laboratory results as given in patent US20260158139A1, “CARD9 VARIANT POLYPEPTIDE AND ANTIBODIES DIRECTED THERETO” (The Broad Institute, Inc., priority 2023, published 2026).
Numbering of substitutions follows the chain as printed.

B1: Bcl10 (endogenous, in mouse BMDCs) (other, UniProt Q9Z0H7 1-233, looked up)
chain: MEAPAPSLTEEDLTEVKKDALENLRVYLCEKIIAERHFDHLRAKKILSREDTEEISCRTSSRKRAGKLLDYLQENPRGLDTLVESIRREKTQSFLIQKITDEVLKLRNIKLEHLKGLKCSSCEPFAAGATNNLSRCNSDESNLSEKQRASTVMYHPEGESSTAPFFSMASSLNLPVLEVGRTENSSFSSATLPRPGDPGAPPLPPDLRLEEGGSCGNSSEMFLPLRSRALSRQ

Assays:
[1] = system: T1, CARD9 FL overexpressed in HEK 293T cells
T1 sequence (Q9H257 1-536, species assumed, looked up): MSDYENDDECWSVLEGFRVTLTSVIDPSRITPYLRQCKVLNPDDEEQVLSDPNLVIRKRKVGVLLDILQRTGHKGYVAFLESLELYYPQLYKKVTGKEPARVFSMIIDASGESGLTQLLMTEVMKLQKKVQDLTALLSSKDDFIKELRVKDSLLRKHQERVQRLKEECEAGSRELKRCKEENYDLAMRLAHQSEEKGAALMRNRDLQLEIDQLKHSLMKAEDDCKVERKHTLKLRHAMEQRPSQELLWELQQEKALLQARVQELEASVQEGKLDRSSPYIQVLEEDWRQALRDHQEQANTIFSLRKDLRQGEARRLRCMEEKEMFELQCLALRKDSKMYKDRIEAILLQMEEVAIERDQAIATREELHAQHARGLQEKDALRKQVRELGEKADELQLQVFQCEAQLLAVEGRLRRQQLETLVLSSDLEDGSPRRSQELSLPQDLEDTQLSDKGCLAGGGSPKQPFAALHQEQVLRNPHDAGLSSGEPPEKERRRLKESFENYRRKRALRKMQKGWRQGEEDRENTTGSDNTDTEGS

[2] = system: T2, CARD9 R101C overexpressed in HEK 293T cells
T2 sequence (Q9H257 1-536 with R101C, species assumed, looked up): T1 sequence (Q9H257 1-536, species assumed, looked up) with R101C

[3] = system: T3, CARD9 S104N overexpressed in HEK 293T cells
T3 sequence (Q9H257 1-536 with S104N, species assumed, looked up): T1 sequence (Q9H257 1-536, species assumed, looked up) with S104N

[4] = molecular target: T4, CARD9 R101C (endogenous knock-in variant, in CARD9 R101C mouse BMDCs) (Mus musculus, UniProt A2AIV8 1-536); experiment: Bcl10 immunoprecipitation from HKCA-stimulated BMDCs, western blot
T4 construct: CRISPR knock-in mouse; The protein stood in lysates of HKCA-stimulated BMDCs
T4 sequence: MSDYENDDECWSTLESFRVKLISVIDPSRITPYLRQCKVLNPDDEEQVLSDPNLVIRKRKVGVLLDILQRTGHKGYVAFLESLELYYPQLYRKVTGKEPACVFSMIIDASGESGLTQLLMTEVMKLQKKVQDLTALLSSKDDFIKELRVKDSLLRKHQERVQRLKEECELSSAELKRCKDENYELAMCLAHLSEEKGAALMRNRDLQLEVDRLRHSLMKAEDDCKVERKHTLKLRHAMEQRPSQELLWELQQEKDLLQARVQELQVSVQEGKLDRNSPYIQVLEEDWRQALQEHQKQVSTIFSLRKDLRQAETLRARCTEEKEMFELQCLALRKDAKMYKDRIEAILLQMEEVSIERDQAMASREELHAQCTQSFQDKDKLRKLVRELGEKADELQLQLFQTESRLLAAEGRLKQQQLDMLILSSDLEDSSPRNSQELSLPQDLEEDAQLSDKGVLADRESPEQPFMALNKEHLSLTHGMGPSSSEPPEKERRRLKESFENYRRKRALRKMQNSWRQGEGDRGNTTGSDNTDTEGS
Method: (§1) Lysate was incubated for 30 min and centrifuged at 2000 rpm for 10 min at 4° C. 50 μl of the supernatant was collected as whole cell lysate (WCL) fraction. Remaining supernatant was collected and incubated overnight with 10 al/sample of CARD9 antibody (Cell Signaling Technology #12283S) at 4° C. while rotating. The next day, 50 μl of Dynabeads Protein G beads (Life Technologies #10004D) were added and incubated for 1 h rotating at 4° C. Immunoprecipitates were washed 3× with standard lysis buffer and resuspended in 25 μl of 2× Laemmli buffer (BioRad #1610737) supplemented with 5% R-mercaptoethanol followed by boiling for 10 min at 75° C. For Bcl10 IP to detect CBM complex formation, cell pellets were resuspended in lysis buffer (PBS, 0.5% NP-40) supplemented with 1× Halt Protease & Phosphatase Inhibitor Single-Use Cocktail and Pierce Universal Nuclease and kept on ice for 10 min. Lysate was centrifuged for 10 min at 2000 rpm at 4° C. 50 μl of the supernatant was collected as whole cell lysate (WCL) fraction. Remaining supernatant was incubated overnight with 200 al/sample of Bcl10 antibody (Santa Cruz Biotechnology #sc-5273) at 4° C. rotating. The next day, 50 μl of Dynabeads Protein G beads were added and incubated for 1 h rotating at 4° C. […]

[5] = molecular target: T5, CARD9 (endogenous, in WT mouse BMDCs) (Mus musculus, UniProt A2AIV8 1-536); experiment: Bcl10 immunoprecipitation from HKCA-stimulated BMDCs, western blot for CARD9
T5 construct: Endogenous protein in lysates of HKCA-stimulated WT mouse BMDCs; also called WT CARD9
T5 sequence: T4 sequence with C101R
Method: as §1

Molecule	in vitro phosphorylation assay (western blot) [1]	in vitro phosphorylation assay (western blot) [2]	in vitro phosphorylation assay (western blot) [3]	binding result [4]	binding result [5]
purified PKCδ (Promega PKCδ Kinase Enzyme System #V3401)	PKCd does indeed phosphorylate S104	this phosphorylation requires an intact RXXS motif in the linker domain	this phosphorylation requires an intact RXXS motif in the linker domain		
B1				no binding	binds
